The series in a line: label from the status in PepcDB records.

Take “MPKVSVVTGFYNRCEHLERTIESILNQTYSDFELIVFDDASTDGTASRLLELKEKYDDPRFRFIIHEENKGFVKGLSEAISGAKGQYIAVQGSGDVSLPRRLELQVEFLDANPSVGAVGGAIYNIQEDTGTRNPQRFEKPIATFDDLLTSNPFTHGEVMYRLDLYKSIGGYRSGFTFAQDRDLWLRMAKKADLGIIPDFLYHRYTLLDGVSFVPDKTIRQRCFSEAAVRLALMPEEEGALAYSRLEAEGPTAVVPIADRAVQKFVPKAAIRLCLYGAPETGLHMARDYIQNPLRRTIVVVLISIYSSRLIKPLQDILYKSIFKGVSISKPIKSSLVKFTRRIQGK”: the protein production entry is recorded as “failed”. As to “MPLCLKINKKHGEQTRRILIENNLLNKDYKITSEGNYLYLPIKDVDEDILKSILNIEFELVDKELEEKKIIKKPSFREIISKKYRKEIDEGLISLSYDVVGDLVILQISDEVDEKIRKEIGELAYKLIPCKGVFRRKSEVKGEFRVRELEHLAGENRTLTIHKENGYRLWVDIAKVYFSPRLGGERARIMKKVSLNDVVVDMFAGVGPFSIACKNAKKIYAIDINPHAIELLKKNIKLNKLEHKIIPILSDVREVDVKGNRVIMNLPKFAHKFIDKALDIVEEGGVIHYYTIGKDFDKAIKLFEKKCDCEVLEKRIVKSYAPREYILALDFKINKK”, the protein production result was “not failed”. With “MPLPPSNGMGTAALVLGIISTVVFCLWPLAIVMGVLSVVFGVIGRRRARRGEATNAGQALAGIICGAVGIVLGVAFMVIIFAAAESSSDPWSTTDDSYSTSLVVHADR” the entry was “failed”. For “MPLSYLSPSSSEERSDDPSKYDGDFGVPQICFCGKQLDLGWDLAVHEQCFCIDKRFGEHRELIQNAFKFGGDSNRLQINQIRAEIEDLKDRLDKKDAEITRLMDALGKK”, the protein production result is on record as “failed”. As to “MPLVLDLARPVSEEELRRLSELNPGYQWERSPEGRLWVSPTGGESGRRSLQLAYQLARWNEERGLGVVFDSSTGFKFPDGSILSPDAAFVERGAWEALSEAEREGFPPLAPKAVFEVRSASQDPEELRAKMGIYLRNGVLLGVLVDPYARAVEVFRPGKPPLRLEGVERVSLDPELPGFALSLPPLW”, the protein production result is reported as “not failed”. With “MPMPTMSQAPHSVRPLNRGHWIATYFIGVAGLSLALMLVLNLILLTTSQNPGKALLDSLSFSVAVLMVSLVLITLIAALPCILFFWLAQRFTWRHLWIYLVSGALAAQFAIPVMTKLLPELFNLPHGVSAALHYLQLASMFGGCGVFMGGLFWWRSGRHLR” the entry was “failed”. Next, “MPMTVVSGRFSTALLPTCFSLSRLHSVKYAAQRRVVFVSRSAHASSASVSVETNSNSNVDFVIEKKDKNRGEKKILACPICYNSLAWISQPNGLIESAASGIQVQCNTCKRSYSGNETHLDLAVASGSKRYSEPMPLSTELFRTPLVSFLYERGWRQNFIWGGFPGPEKEFEMAKAYLKPVLGGNIIDASCGSGMFSRLFTRSDLFSLVIALDYSENMLRQCYELLNKEENFPNKEKLVLVRADIARLPFLSGSVDAVHAGAALHCWPSPSSAVAEISRVLRPGGVFVATTFIYDGPFSFIPFLKNLRQEIMRYSGSHIFLNERELEDICKACGLVNFTRVRNGPFIMLSATKPS”: “failed”; “MPNMGIEKLYVSQQLTDSAAGMTFTKPQYYKYVQELSLKPKVNSASAYAENRKVDQDTQFDSCDVSINLFQMTSSQRAFMLGQSLAGGGGAIGALNDKAPWITLLYKAPIKVDDTIYYRYGVIYKTQFQPPDDDYKTTEGKPDFSQVPKISGSAQPTEWSFKDGKLEKHPWEWHVDTCDPNCPENIDDTWFNSVSIPSLVTYGSLSLSASSPKDGATGISLDTKPSLTFNNPIMNATSILLYNVSDGATVNTTTSSDSSGKIITITPSTNLVANKNYVLVVQDVTDLYGQTLDTQLIRFTTATAASLEHHHHHH”: “not failed”.

Regarding “MPNPRRIVFGDVHGHFDALTALFEAIAPNERDGVYFVGDLIDRGPESAKVVDFVMENKYHCLLGNHEQMMLDAVGGFNFSPQLLHAWIYSGGKSTLESYEHQIPQSHVDWMRNLPLYLDLGDVWLVHAGVDPRLPIEEQGEAQFCWIRDEFHRYPYPYFANKLIITGHTITFTFANVEPGKLVSGPGWLDIDTGAYHPKSGWLTALELNNQEVYQAHIFTNEVRRLPLEDAVVPLPPQNLHRLEHHHHHH”, the protein production entry is listed as “failed”. With “MPNYINYPSWLHPEVIQGIPITWYSLSYILIILISYKFIWYQIQSDNVDIKKEDYEIFMFSLVLGAILGGRLASTLVYDKSGIYYSNPWLILLPFDQHWNFTGFRGMAIHGGFLGAIIAPLITINTNLKNTNVQKYFLKLTDYGSIAFSSGYILGRLANFANAELYGRVMKGGIIFPNAEPFDTNIPGVKEFASSVGLEISPHDLLINLPRIPSQLIEGFFEGPVTFLLLWFLFKKIKKYDGFIFGVYVMLYAFFRFFIEYLREPDKELGFIITYKPITSLSEFSFLNISMGQILSLTLMLSGLIWIIVTKKIADKKIKNNTNLAYKN” the entry was “failed”; with “MPPAPVFLLLAAGASRRMRGADKLMEPVAGEPLLRLQARRGIAAGLAVLVTLPPDRPERWAALEGLAVQRLPVPDAAEGLAASIRAGVAAAPPDAAVLLLLADLPEIEATDLAQMAALHREAPKALLRATTADGRPGHPILFPADLRPELQALKGDQGARRILERAAGRLRLVPLAGTRAVTDLDTPEDWALWRARTGHLEHHHHHH”, “failed”; with “MPPHASQVSVVVIGYDDAAHVTDAVRSALAQGPAVREVIAVDDCSSDGSPGLLDALAVEDTRVRVLRREVNSGGCGTPRNDGIDAATAPYTMFLDSDDMLPPGAVEALLAAADRHGAQVAAGLCVRRELPSGREVPWQPELYTEPALVPHPARLRRLVHDTLCVNKLYRTDFLREHAIRFPDGRFPYEDFVFSARVLAAGPRMALVPDTVYVWHVRRSAERLSISLDRAGIDNWQARMAAAAQAYDILLGAGEKRLARAARAKFLDHELRMYTRELDLRGTEYRREWWTLTRAYLSAFDAAEFALAPAPGRVIARVVLAAEEPRDLPRLKELAARPARLHPPYARAADGTPVWSADLPQVPLDHVLVRPMHLLPVAVDAELRPRARGTRLRLRLHELYGRVADAGPASVNLEFVHREGGRVGTAATAPLLADPEFDTWSAEVPVDLAALGSGTWDLRLTLRFHDGTSRDTTAHAVAGPGLLRRGVVPSGRHGVLLVQPYATHSGALALRVATGIQGVTSVMGRRLRRLLHW”, “failed”.

In the case of “MPPLCPLPTGGKRTNLHQYRHATRAMTDRLSPERRRYLMQQVRSKNTRPEKAVRSLLHSIGYRFRLHRKDLPGTPDIVFPSRRLVLFVHGCFWHGHGCRIGQLPKSRLDYWSPKIEANRARDQRKEAALAAEGWRVAVVWQCELSDLGALEARLRNILDPS”, the protein production result is listed as “failed”. Consider “MPPPLRVLILEDSEDDYFLLVRALKREFDIVPERVDSEESLRANLCEKRWDIVLSDYFMPQFDALAALTLIQSMNLDIPFIIVSGKIGEFEAVKAMKAGAHDYIMKGDYTRLIPAIRRELREAVIRQEQRRTDHELREQLHFRQALIDAIPAPIYFMDTTGIFLGCNKAFEAFSGHTQDEIVGKTIYDLMPPSLAKHTDSADRELFEHGGIQIYESVISFADGALHDVIFYKATFTTTEKNIGGLVGTILDITERKQTEERLRYMSTHDTLTGLYNRAYFQEEMERLEQGRQFPVSVVVFDVDRLKYVNDSQGHAAGDELLIRAALVLKGAFRAEDVVARIGGDEFAVLLPSADADVVQEALRRVIGKIEQSQTEDHPVPLSISFGAATASKGDRLEEVLKLADRRMYENKFKKCCVLPA”, for which the protein production entry is listed as “failed”. Take “MPQDVMTANHVSPSNDAAAPSALDLARNQRLSLMDLLSVSEALNAAGQQAAAAELYKTWVAFNDNNPTIHLAYFNYAVMLNQLGDRAGAVQAFRACLKANPEFAPGHINLGRALEDAGLIGHAVEQWSHYAEVTKNVDAETIGHRHMTLQNMGRVLEGAGKLEEAETALLQAFELRPELPEAGQHWASLRQRQCKWPVLAPSNHISPRKMLDAMSSLTLSCYADDPMFQLAKAYRLSKTLIGARPDLSRFPRRSPKQKSGTGQRLRVGYLSSDLRDHAVGFALCEVLELHDKDSLEVFAYYCGNVRGTDSTQERIKAAVHCWRDIHGVDDATAASQIIADEIDILIDVNGYTKDARAKIFAYRPAPVIVSFCGYPGSMGSPFHQYLISDGYMIPPENEIYYSEKVLRIACDQPLDRKRPVAARPSRADVGLPEDAFVYASFNGMQKITENCFARWMTILSETPGSLLWLLTGDDDVNQRLRDLAEKSGVASERLVFAPKAQNPQHIARIGLADLFLDTFPYGAHSTASDAITSGLPVLTMYGKTFAARFCGSIVTAAGVPEMICSSPEDYVARAIGFERDRQSLLEVRESIARQRETSVLRDIPALARRLEELFWQMQGECERGETPVPDLSNLDIYYEAGAEALLENIEFEDEQSYRERYLKKLRQWHDYAPIPYDRRLWQNPDN”: the protein production result is on record as “failed”. Next, “MPQPRRSTGSKLTYRPVGYVNAMSEQDEVPSEDRRKYEFRKVIEELKDYEGSGTQLVTIYIPPDKQISDVVAHVTQEHSEASNIKSKQTRTNVQDALTSIKDRLRYYDTFPPDNGMVVFSGAVDSGGGRTDMVTEVLESPPQPIESFRYHCDSAFLTEPLAEMLGDKGLYGLIVLDRRESNVGWLKGKRVQPVKSAESLVPGKQRKGGQSAQRFARLRLEAIDNFYQEVAGMADDLFVPKRHEIDGILVGGPSPTKDEFLDGDYLHHELQDKVLGKFDVSYTDESGLSDLVDAGQAALAEADLMDDKSDMEEFFEELNGGKLATYGFEQTRRNLIMGSVDRLLVSEDLREDVVIYECPNDHEEYETIDRRNTSPEHTCSDCGEEATEVDREDAIDHLMSIADQRGTETHFISTDFEKGEQLLTAFGGYAGILRYSTGV”: “failed”. With “MPRASISDTIPMTMASIDAGSVRFTARADKRHLNPLGGVHGGFAATVLDSVTGCAIHSILEAGVGYGTVDLSVKRVKAVPEDTPLVAEGRVLHVPCAIGSQRADLMLAPPRLGRDRRCPAGLEHHHHHH”, the protein production entry is “failed”. “MPRFSTACLDWESRIVNRESLIPFAPLFPTEAEAALDVFKSLQITDLPQVYDRKLGRHRHPTFGESCEQYVFDFVSAIFGAYDEESAKRVIEEFFLLISKKNIKSTLAAGIMLTALIRNWRHNQELLILAPTQEVAGNSFNPAASMVAADPDLTILLHVNKNTKEITHTLTKAVLKIVSADSNTAAGKKAAFVLIEELWLFGKKANAAAMLQEATGGLISRPEGFVIYITTQSDEPPAGVFKEKLDYFRDVRDGKIDDPTSLGVLYEFPDPMIDNEAYLDPANWYVTNPNMGRSVRKDWLERKLLKIQSGEDEEGDTWQSFLAKHLNVEIGMRQRGNRWPGANYWERAADPELAVLDHFAALDRFLERSEVVVVGVDGGGLDDLFGLTLVGREPDEIEIPVMVNGRESLVKMKRWLTWSHAWCHRDVLKRRKKIAPVLTDFDKAGHLTIVDAALEDLASIVDIIGTVKASGLLSSVAVDPAGLGEFVDALASPEIDITQENGLLVGVPQGFALMNAIKTAERRLSNGMLRHAGGPLMPWCVANLKIEPTATAIRATKQTAGDAKIDPAMALFDAVTMMVKNPEAPIASVYAERGIRVV”: the protein production entry was “failed”. Next, “MPRLARSLPLLLGLGLAAWAGATDGPLPVPADGVKLEAPTTASPSIRLVIPAEEIERRALAEYRQIIDNAAREGALAPDSVPDLARIRAIVQRLVPHAPRWNPDAAHWQWEVNLIGAAQVNAFCMPGGKIAVFSGLLERFRLTDDELAMALGHEIAHALREHARARAGQREITNLGANVISQLFGFGNRGDAGFGEGAKMHLLAFSRAEETEADLIGMDIAARAGFDPRAALTLWQKMGSIGGAEQKQFLSTHPSGRSRMTVLSRHLPETLPLYADALRMPMAKLPEYRSNMQYLGAAPVDNGDEAPMRPMVQQ”: “failed”.

These data come from a protein production outcome set (Wang et al. 2014).
